Test results reported in patent US9095624.

Biological target: EGFR receptors of A431 human epidermoid carcinoma cells (human) (UniProt P00533)

For “DTox-HMP-NLS-EGF after refolding (from UniProt P00588 198-384; P24232 1-396; P01133 971-1023)”, which Ka is on record?
Its Ka is 5.4e+13 M⁻¹.

What about the fold increase of affinity after refolding against before refolding of the same substance?
The fold increase of affinity after refolding against before refolding was over 2.8 fold.
